Several values for one entry are separate records, joined by “and”; a condition that tells them apart may be missing. Identical values can stand only once. One block for each substance: values may come before it.
Legend:
[1] = target: LapD (Pseudomonas fluorescens Pf0-1), full-length, non-fluorescent, detergent-solubilized (Pseudomonas fluorescens Pf0-1) (UniProt Q3KK31); assay: SEC-MALS; LapD incubated with LapG and c-di-GMP; c-di-GMP omitted from the mobile phase
[2] = target: LapD (Pseudomonas fluorescens Pf0-1), full-length, non-fluorescent, detergent-solubilized (Pseudomonas fluorescens Pf0-1) (UniProt Q3KK31); assay: SEC-MALS; LapD (~28 μM) incubated with 100 μM c-di-GMP, concentrated ~5-fold; 20 μM c-di-GMP in the mobile phase
[3] = target: LapD (Pseudomonas fluorescens Pf0-1), full-length, non-fluorescent, detergent-solubilized (Pseudomonas fluorescens Pf0-1) (UniProt Q3KK31); assay: SEC-MALS; LapD incubated with 100 μM c-di-GMP and a 3-fold molar excess of LapG over LapD dimer, concentrated; 20 μM c-di-GMP in the mobile phase
[4] = target: LapD (Pseudomonas fluorescens Pf0-1), full-length, non-fluorescent, detergent-solubilized (Pseudomonas fluorescens Pf0-1) (UniProt Q3KK31); assay: SEC-MALS; apo protein, ~10 mg/ml (~140 μM), Superdex 200 10/300; 25 mM Tris-HCl pH 7.6, 250 mM NaCl, 0.005% LMNG, 0.04% CHAPS; protein-conjugate analysis
[5] = target: LapG labeled with Oregon Green 488 maleimide at C135 (Pseudomonas fluorescens Pf0-1); assay: fluorescence polarisation; fluorescence anisotropy; 1 µM Oregon Green 488-labeled LapG fixed, detergent-solubilized LapD titrated 1–36 µM; without c-di-GMP; apparent
[6] = target: LapG labeled with Oregon Green 488 maleimide at C135 (Pseudomonas fluorescens Pf0-1); assay: fluorescence polarisation; fluorescence anisotropy; 1 µM Oregon Green 488-labeled LapG fixed, detergent-solubilized LapD titrated 1–36 µM; with 100 µM c-di-GMP; apparent
[7] = target: LapD^TMcys lacking sfGFP (non-fluorescent; C304A, C397S) (Pseudomonas fluorescens Pf0-1) (UniProt Q3KK31); assay: SEC-MALS; apo protein, ~10 mg/ml (~140 μM), Superdex 200 10/300; 25 mM Tris-HCl pH 7.6, 250 mM NaCl, 0.005% LMNG, 0.04% CHAPS; protein-conjugate analysis
[8] = target: LapD^TMcys-A602C lacking sfGFP (non-fluorescent) (Pseudomonas fluorescens Pf0-1) (UniProt Q3KK31); assay: as above
[9] = target: LapD–sfGFP (native LapD with C-terminal monomeric superfolder GFP) (Pseudomonas fluorescens Pf0-1) (UniProt Q3KK31); assay: as above

- stoichiometry N [1]: 2
- stoichiometry N [2]: 4 and 2
- stoichiometry N [3]: 4
- stoichiometry N [4]: 2
- Kd [5]: 11.7 µM
- Kd [6]: 1.9 µM
Substance: LapD (Pseudomonas fluorescens Pf0-1), full-length, non-fluorescent, detergent-solubilized (from UniProt Q3KK31 1-648) (receptor)

- stoichiometry N [7]: 2
Substance: LapD^TMcys lacking sfGFP (non-fluorescent; C304A, C397S) (from UniProt Q3KK31 1-648) (receptor)

- stoichiometry N [8]: 2
Substance: LapD^TMcys-A602C lacking sfGFP (non-fluorescent) (from UniProt Q3KK31 1-648) (receptor)

- stoichiometry N [9]: 2
Substance: LapD–sfGFP (native LapD with C-terminal monomeric superfolder GFP) (from UniProt Q3KK31 1-648) (receptor)

Source: PMC5231407
